This data set can be described thus: soluble on expression in E. coli; label from the status in PepcDB or PDB records.
With “MGSDKIHHHHHHMHIRKYDHDYSRRFFMEQAAKGIATAGVLGPLWPMIANSADITKAYPDELMSIDAWSKGKIKTGDFITAENVDIVKDLLDPVAYQEVKTMGRRIRIVPTTKDVTRMFPHEYLEATLRNQGKAKFDAGGNIVSPDGKPWIGGNPFPDAKTGVEVAANLTLCWGRHDNSIYAIRDWEIAPDGSQSYQYDFAWVEENSVARAQAKSFPGGEDKLRYQAVFFTSPVDVKGTSYLSTWYYDQRKFPDLSGYLPAFKRVRKFPTNQRFEPLVAGVNFYLSDAWASGDPMLTWGNYKIVGRGPMLGAQSQTWYGDHPNWERPVHGGPKGITFFDTNMELCPDVVVFEAEPVGYPRAPVSKKRVWVDTRNMMFVAYVTYDRRGDLFKSFEPQFSLYEKGDKKLMDGSHTAWSWTAVTCHNIQDGRMTRFLQTKSIAGGVSQGYNVEGTFDKYLTEQALQRLGT”, the “soluble on expression in E. coli” value is recorded as “not soluble”.

Consider “MGSDKIHHHHHHMDIISSFGFGRKHIAPILSKLMMLYPKLQIHFDTIDNTKDLIQHSIDLDIRIGNEIAPNMIAKKLASNFRILCASPSYLLKHGVPDSIEDLQTHDCLTISERDQSSVLWKFRHASEDVSVHIKPRFVSNNGEIIHQLAIEGHGIIFRSIWDVADELITGQLQHILPEYWQDADVWAVYPSRLKSSSKLQTCILFIQNELLNRLQHVQNLSRGQLISPAVKREPPPEKVFL”, for which the “soluble on expression in E. coli” value was “not soluble”.

For “MGSDKIHHHHHHMTPTMSNIATLDDVRYQEHILQGVSRTFALTIPQLPPALREVVGNAYLLCRIVDTVEDDSALTLEQTRELAEMFIEVVSGTVEAETFARALYPLLSEHTIPAEHDLIKHTPSVIRMTHSFNPVQRQALERCIRIMGQGMAAYQESESLSGLENLAEMDRYCYHVAGVVGEMLTELFCDYSPEINQHKPALMQLSVSFGQGLQMTNILKDIWEDRKRGACWLPRDIFLQEGFDLNDLQPGCPERGFHAGLGTLIGIAKTHLQNALAYTCLIPSHEAGVRRFCLWAIGMAVLTLNKINHKRDFITGREVKISRRSVRATVLITSLLASQDWALKKIFAISSRNLPEVQIARS”, the “soluble on expression in E. coli” value is listed as “not soluble”.

For “RAHQRWREHALAVIKDKMYNHIGSILVFLPGVADIRFLLDSLMAQKVEGVKICPLFGELSLKEQQQAIAPCLSGHRKIVLATNIAETSLTIDGIDLVIDCGLEKVAVFDSASLMNKLMQKQISKASAVQRAGRAGRLMHGQCIRLYGKDDFERR”, the “soluble on expression in E. coli” value was “not soluble”.

With “MGTRRDVRQEMLDDVQKKLMSLANSSEGKVDKVLMRNLFIGHFHTPKNQRHEVLRLMGSILGVRREEMEQLFHDDQGSVTRWMTGWLGGGSKSVPNTPLRPNQQSVVNSSFSELFVKFLETESHPSIPPPKLSVHDMKPLDSPGRRKRDTNAPESFKDTAESRSGRRTDVNPFLAPRSAAVPLINPAGLGPGGPGIFFLEHHHHHH”, the “soluble on expression in E. coli” value was “not soluble”.

As to “MSLNAEIGIDSITLSIARVTPSTHWTFVEIVDEENRIGLGEATLTGRDSELLRAASDMFPAIVDMRVDDAASWLDTLELGTIARAAVASALSHAVTDLRARIRNRSIAELLGHPVRAFIPMYANINRRTHTRSPDSFAHSARSAVAAGFSAVKIAPFDGVTLYGSDAHAQPSLIDAALERIAAVRDAVGPAVDVMVDCHWRLNAHVARQVLASDVCDGLHWLECPLPETPDRLHELRALRSLANDRGIRLAGCEEAIRAEGFMPFVEAGAYDVMMPDVKYVGSVDEMLHVAQLLGRHDVEFSPHNPSGPVAHAVSMQICSLVPNFRRMEMQFDETPYFHTLTGATVPVPDNGGAQIARTSGIGMRLDRDALDPLTIRRLQFHRACRAGELVVTEGHHHHHH”, the “soluble on expression in E. coli” value is recorded as “soluble”.

As for “MGSDKIHHHHHHMTSYVLTVSCPSKRGIVAALSGYLAEMGCNIVDSSQFDDLDTDRFFMRVSFISEQGASREKIEAGLAPIVDNFQMEIGLYDSTERVKVLLMVSRFGHCLNDLLYRWKIGALPIDIVGVVSNHFDYQKVVVNHDIPFHHIKVTKDNKPQAEAQLMELVQQTGTELIVLARYMQVLSDAMCQKMSGKIINIHHSFLPSFKGANPYKQAFERGVKLIGATAHYVTADLDEGPIIEQDVARVTHAQNAEDYVSIGRDVESQVLARAIHAHIHHRTFINGNKSVVFPASPGSYASERMG”, the “soluble on expression in E. coli” value is “not soluble”.

For “VTQQSRQLLDVTRIYYEPAAAELPRGRQVLERWPDATLVPVESHWRIPELHGDETNVDRWVRIKREALVLGIKKSLTAKPNGRSADFIAPSTANGCAMACAYCYVPRRKGYSNPITVFTNIEQITGYLERHVHRQGVKPEPNQCDPASWVYDLGENSDCSVDAEVSDNVDDLIALFRGLPTAKASFATKHVNRRLLTLDPQGRTRVRFSLMPARVAKLLDVRTSPVPERLGALDDFVAAGYEVHVNLSPVVVHEDWLPVWAALLDELGDATNDATKAQLQAEVIFLTHEENLHRVNLGWHPKAEDLLWRPAMQETKRSQNGGVNVRYRTGDKGRYVQQLLALIEERAPYLRVRYAF”, the “soluble on expression in E. coli” value was “soluble”.

Take “MAHSGDNHSSEFCMLRSLSASIGADPLLVQGAGGNTSIKQAGVLWIKASGTWLKNARDDEIMVPVALAPLLDAVSHRSPAAEAAGQFTLADLNPRQLRPSIETTVHALLPQKIVVHVHCVETISIAVQANAEALLEGRLRGLDWAFVPYRRPGLPLAQAIAERLKPATNVLVLGNHGLVVAADTVAEAALLLQRVTGLLARQPRPAPPPDLDALLRLAAGSDYRLPASTAAHAVATDLASCRIAASGSLYPDHVIFLGVGSVIAGPGENAAAVVARTAAAPTSILFPGKGVLMRREANAGAEAMARCLADVVARVDGAARVNYLSPKENAELLNWDAEKYRQQLNREGATLQLEHHHHHH”: the “soluble on expression in E. coli” value is listed as “not soluble”.

With “MRQQTCTTVTLRQRPIRNGRISLYLDYYPAVRNPKTMKLSRREYLGFYIYATPKNAIELDYNNEILAKAELIRCRRQEAVINEEFGFMDRHKMRADFMAYFKEVCRKKDHKWHIVYLHFEKFVNGKCMFGEITVDLCNRFRDYLLHARQLKHTDKMVSRNSAASYFSLFRGVLKLAYRDKYLRENPNDFLEKIESRDIHKEFLTQDELKTLASTPCDIPVLRNASLFSCLTGLRISDILNLKWENLCTAPDLGHCIRLRTQKTQTEALLPISYEAYALCGEPGTGKVFKELRRCMTGYPLKAWIKKAGIQKHITFHCLSHSKLFYLLNISELSILKNVTANDLETSYILFLSQLCNIQRTL”, the “soluble on expression in E. coli” value is listed as “not soluble”.

With “MAGDPMKVAFITLGCRVNSYESEAMAEKFIKSGWEIVDNDEKADAYVINTCTVTNMGDRKSRQMISRARKANKDAVIAAVGCYSQVEPEKVAEIEGVDIVLGTKNKGDIIHYVNKFIEERNQIVNVKDVFTDKKFEDLNIDEYQDKTRAFLKIQDGCNRFCSYCLIPYARGGVCSKNPEKVIGEIKRLAEHGFKEIILSGIHIASYGDDLKGDWNLISIIEKAEQIDGIERIRIGSIEPRFFDEDTISKIKNMKKMCPHFHLSLQSGCTETLERMNRKYTAEEYKEIVYKLRENISDVSITTDVIVGFPGETDEEFEKTYDFLKEIELAKMHVFKYSPREGTKAAAMKNQINGNVKDKRSAELIELDKINEKKFMSKFLDREMDVLFEKKLEENEDLYEGYTPNYIKVVVKSSEDISRKILKVKLTEIQDEHLLGELILYKLEHHHHHH”, the “soluble on expression in E. coli” value was “soluble”.

With “MASYSSILVLSVCTIGALAVMEHNSYYPGGHSTSYYQPFQTDTYGSKYYNTESYGKYDEHGNNGKDSHYEPNYYNPIASYYHSYMPKYHGGHNDYYTKYNQYTPYYGGSHQQNYYEQPKHDDYHGGDHHYDMHK”, the “soluble on expression in E. coli” value is on record as “not soluble”.

These data come from the DeepSol protein solubility set.
